From the supplement of paper PMC9112550, “Optimization of the antimicrobial peptide Bac7 by deep mutational scanning” (BMC Biology, 2022)

Test system: Escherichia coli TOP10
Experiment: shrunken log2 fold change of peptide-encoding DNA abundance (4.5 h post-induction vs induction); higher = less antimicrobial activity (less host growth inhibition)
Settings: time post-induction: 4.5 h; library: site-saturation at positions 5, 18, 19, 20
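Note: peptides expressed intracellularly from a pBAD plasmid library in pooled LB shake-flask culture, induced with 0.3% L-arabinose, DNA abundance read by NGS, three biological replicates, DESeq2 with apeglm shrinkage.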

Row | Sequence | shrunken log2 fold change
1 | RRIRYRPPRLPRPRPRPKPAPRP | -0.0511
2 | RRIRRRPPRLPRPRPRPHNRPRP | 0.0584
3 | RRIRIRPPRLPRPRPRPQCRPRP | -0.0364
4 | RRIRKRPPRLPRPRPRPNVFPRP | 0.154
5 | RRIRSRPPRLPRPRPRPRMKPRP | -0.0423
6 | RRIRPRPPRLPRPRPRPVMMPRP | 3.4
7 | RRIRNRPPRLPRPRPRPSAYPRP | -0.42
8 | RRIRQRPPRLPRPRPRPSIAPRP | -0.00998
9 | RRIRSRPPRLPRPRPRPSQYPRP | -0.466
10 | RRIRMRPPRLPRPRPRPEQPPRP | 0.395
11 | RRIRIRPPRLPRPRPRPAKEPRP | -0.374
12 | RRIRFRPPRLPRPRPRPLHNPRP | -0.398
13 | RRIRMRPPRLPRPRPRPIDSPRP | 0.165
14 | RRIRWRPPRLPRPRPRPVRAPRP | 0.636
15 | RRIRCRPPRLPRPRPRPHWPPRP | 0.149
16 | RRIRCRPPRLPRPRPRPKNFPRP | -0.555
17 | RRIRARPPRLPRPRPRPRTWPRP | 0.669
18 | RRIRTRPPRLPRPRPRPVYSPRP | -0.239
19 | RRIRLRPPRLPRPRPRPYKQPRP | -0.0145
20 | RRIRPRPPRLPRPRPRPSLIPRP | -0.181
21 | RRIRVRPPRLPRPRPRPEWYPRP | -0.419
22 | RRIRDRPPRLPRPRPRPLDAPRP | 0.0602
23 | RRIRFRPPRLPRPRPRPECMPRP | 0.0416
24 | RRIRARPPRLPRPRPRPMSGPRP | 0.0632
25 | RRIRARPPRLPRPRPRPKPAPRP | 0.711

Row | Sequence | shrunken log2 fold change
26 | RRIRGRPPRLPRPRPRPMFDPRP | 0.662
27 | RRIRIRPPRLPRPRPRPSENPRP | -0.356
28 | RRIRCRPPRLPRPRPRPLNGPRP | -0.444
29 | RRIRVRPPRLPRPRPRPVRAPRP | 0.616
30 | RRIRRRPPRLPRPRPRPFCMPRP | 0.084
31 | RRIRCRPPRLPRPRPRPSWSPRP | -0.263
32 | RRIRTRPPRLPRPRPRPVIQPRP | -0.202
33 | RRIRKRPPRLPRPRPRPNFTPRP | 0.156
34 | RRIRYRPPRLPRPRPRPKQNPRP | -0.473
35 | RRIRHRPPRLPRPRPRPQGRPRP | 0.027
36 | RRIRNRPPRLPRPRPRPTAWPRP | -0.0125
37 | RRIRDRPPRLPRPRPRPSMVPRP | -0.24
38 | RRIRFRPPRLPRPRPRPKGYPRP | 0.00663
39 | RRIRGRPPRLPRPRPRPTGEPRP | 0.0778
40 | RRIRRRPPRLPRPRPRPAGHPRP | 0.187
41 | RRIRNRPPRLPRPRPRPDTSPRP | -0.0648
42 | RRIRPRPPRLPRPRPRPVPFPRP | -0.303
43 | RRIRERPPRLPRPRPRPPLVPRP | -0.0197
44 | RRIRRRPPRLPRPRPRPRKQPRP | -0.0686
45 | RRIRRRPPRLPRPRPRPDTDPRP | -0.108
46 | RRIRMRPPRLPRPRPRPWDTPRP | -0.0606
47 | RRIRPRPPRLPRPRPRPNMHPRP | -0.329
48 | RRIRARPPRLPRPRPRPDSMPRP | 0.02
49 | RRIRMRPPRLPRPRPRPCCCPRP | 0.0604
50 | RRIRCRPPRLPRPRPRPEPLPRP | 0.438

Row | Sequence | shrunken log2 fold change
51 | RRIRCRPPRLPRPRPRPDHEPRP | -0.144
52 | RRIRVRPPRLPRPRPRPAHEPRP | 0.205
53 | RRIRIRPPRLPRPRPRPVRWPRP | 0.474
54 | RRIRDRPPRLPRPRPRPHEIPRP | -0.0115
55 | RRIRNRPPRLPRPRPRPCPVPRP | -0.438
56 | RRIRERPPRLPRPRPRPGAKPRP | 0.188
57 | RRIRGRPPRLPRPRPRPYNLPRP | -0.487
58 | RRIRARPPRLPRPRPRPPGLPRP | 0.517
59 | RRIRCRPPRLPRPRPRPQDCPRP | -0.241
60 | RRIRARPPRLPRPRPRPDMYPRP | -0.0823
61 | RRIRWRPPRLPRPRPRPCHPPRP | -0.11
62 | RRIRHRPPRLPRPRPRPFAQPRP | -0.163
63 | RRIRLRPPRLPRPRPRPAYIPRP | -0.098
64 | RRIRRRPPRLPRPRPRPFMQPRP | -0.0994
65 | RRIRERPPRLPRPRPRPTTPPRP | -0.0926
66 | RRIRPRPPRLPRPRPRPSPWPRP | 0.0349
67 | RRIRKRPPRLPRPRPRPGTAPRP | 0.625
68 | RRIRARPPRLPRPRPRPPKEPRP | 0.818
69 | RRIRNRPPRLPRPRPRPVRVPRP | 0.0666
70 | RRIRSRPPRLPRPRPRPLMAPRP | 0.000235
71 | RRIRWRPPRLPRPRPRPVIGPRP | 0.183
72 | RRIRWRPPRLPRPRPRPDMYPRP | -0.389
73 | RRIRMRPPRLPRPRPRPWTAPRP | -0.0195
74 | RRIRHRPPRLPRPRPRPRHPPRP | 0.0823
75 | RRIRIRPPRLPRPRPRPESSPRP | -0.0745

Row | Sequence | shrunken log2 fold change
76 | RRIRKRPPRLPRPRPRPFCEPRP | -0.0765
77 | RRIRQRPPRLPRPRPRPDLWPRP | 0.514
78 | RRIRLRPPRLPRPRPRPYSHPRP | -0.444
79 | RRIRNRPPRLPRPRPRPEGWPRP | 0.68
80 | RRIRSRPPRLPRPRPRPHELPRP | -0.101
81 | RRIRARPPRLPRPRPRPHYLPRP | -0.503
82 | RRIRNRPPRLPRPRPRPSVWPRP | 0.228
83 | RRIRVRPPRLPRPRPRPLHVPRP | -0.311
84 | RRIRCRPPRLPRPRPRPQDWPRP | -0.0628
85 | RRIRYRPPRLPRPRPRPILEPRP | 0.0174
86 | RRIRKRPPRLPRPRPRPMFCPRP | 0.0792
87 | RRIRMRPPRLPRPRPRPSPAPRP | 1.83
88 | RRIRSRPPRLPRPRPRPEESPRP | -0.048
89 | RRIRQRPPRLPRPRPRPADRPRP | 0.0738
90 | RRIRDRPPRLPRPRPRPDNIPRP | -0.112
91 | RRIRHRPPRLPRPRPRPSVVPRP | 0.118
92 | RRIRQRPPRLPRPRPRPTQKPRP | 0.0237
93 | RRIRSRPPRLPRPRPRPPSCPRP | -0.0434
94 | RRIRHRPPRLPRPRPRPHFRPRP | 0.00253
95 | RRIRRRPPRLPRPRPRPKYGPRP | -0.000734
96 | RRIRLRPPRLPRPRPRPPQLPRP | 0.206
97 | RRIRQRPPRLPRPRPRPFSCPRP | -0.00804
98 | RRIRDRPPRLPRPRPRPASMPRP | 0.483
99 | RRIRPRPPRLPRPRPRPFDFPRP | -0.206
100 | RRIRERPPRLPRPRPRPDTRPRP | 0.0127

Row | Sequence | shrunken log2 fold change
101 | RRIRLRPPRLPRPRPRPQRMPRP | -0.124
102 | RRIRQRPPRLPRPRPRPAYRPRP | -0.216
103 | RRIRPRPPRLPRPRPRPWDMPRP | -0.0229
104 | RRIRFRPPRLPRPRPRPHFLPRP | -0.827
105 | RRIRTRPPRLPRPRPRPGSPPRP | 0.0989
106 | RRIRSRPPRLPRPRPRPINRPRP | -0.225
107 | RRIRHRPPRLPRPRPRPAVAPRP | 0.117
108 | RRIRPRPPRLPRPRPRPKTLPRP | -0.0149
109 | RRIRTRPPRLPRPRPRPCTMPRP | -0.0721
110 | RRIRYRPPRLPRPRPRPICPPRP | -0.471
111 | RRIRERPPRLPRPRPRPYHYPRP | -0.102
112 | RRIRDRPPRLPRPRPRPQDQPRP | -0.144
113 | RRIRNRPPRLPRPRPRPKSGPRP | 0.161
114 | RRIRVRPPRLPRPRPRPLCCPRP | -0.0983
115 | RRIRDRPPRLPRPRPRPQCNPRP | -0.0196
116 | RRIRFRPPRLPRPRPRPNPQPRP | 0.17
117 | RRIRPRPPRLPRPRPRPCWEPRP | -0.0268
118 | RRIRTRPPRLPRPRPRPMFCPRP | -0.628
119 | RRIRDRPPRLPRPRPRPFQPPRP | 0.0201
120 | RRIRIRPPRLPRPRPRPPSAPRP | 0.369
121 | RRIRKRPPRLPRPRPRPDQCPRP | 0.0219
122 | RRIRQRPPRLPRPRPRPLFFPRP | -0.00141
123 | RRIRDRPPRLPRPRPRPQGCPRP | 0.0122
124 | RRIRHRPPRLPRPRPRPRRHPRP | 0.153
125 | RRIRERPPRLPRPRPRPICIPRP | -0.0731
